Among the data in patent US20180237756 are activity (hNTP incorporations) and IC50 values, retold here.

As usually defined, the IC50 is the concentration needed to halve the response being measured. Read a low IC50 as inhibition by little substance.

In data set [1] the target is T1, TgoT DNA polymerase (V93Q D141A E143A A485L) (Thermococcus gorgonarius) (UniProt P56689).
T1 sequence: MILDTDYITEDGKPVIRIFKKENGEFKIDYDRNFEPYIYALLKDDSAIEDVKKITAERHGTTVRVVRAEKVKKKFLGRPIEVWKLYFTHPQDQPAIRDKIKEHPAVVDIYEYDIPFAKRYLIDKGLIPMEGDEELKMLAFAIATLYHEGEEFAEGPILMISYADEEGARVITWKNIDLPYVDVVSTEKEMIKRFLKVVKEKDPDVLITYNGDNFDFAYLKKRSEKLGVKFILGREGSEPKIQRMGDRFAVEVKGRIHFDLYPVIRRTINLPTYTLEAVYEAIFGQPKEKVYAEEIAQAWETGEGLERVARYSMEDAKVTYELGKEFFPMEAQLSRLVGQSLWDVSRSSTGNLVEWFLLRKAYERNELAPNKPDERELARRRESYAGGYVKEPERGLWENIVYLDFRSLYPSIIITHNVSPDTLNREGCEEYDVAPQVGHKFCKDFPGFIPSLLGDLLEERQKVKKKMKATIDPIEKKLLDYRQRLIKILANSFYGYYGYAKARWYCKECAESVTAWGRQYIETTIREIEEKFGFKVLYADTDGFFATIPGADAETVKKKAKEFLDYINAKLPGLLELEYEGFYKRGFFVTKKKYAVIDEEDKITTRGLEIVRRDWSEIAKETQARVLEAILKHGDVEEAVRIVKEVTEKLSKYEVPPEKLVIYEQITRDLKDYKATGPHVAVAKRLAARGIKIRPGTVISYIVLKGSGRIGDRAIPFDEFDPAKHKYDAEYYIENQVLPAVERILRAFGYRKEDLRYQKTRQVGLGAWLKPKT
The note with it: does not synthesise HNA much beyond six incorporations.

Data set [2] relates to TAT (trans-activator of transcription) (HIV). In words: competition.

E. coli tRNA supE gene primer-template displayed an activity (hNTP incorporations) in data set [1] of 6. In the case of miniTAR RNA, the IC50 was 1.9 nM in data set [2] (IC50 of HNA anti-TAR aptamer T5S8-7 (binds TAR RNA) displacing TAT from immobilized miniTAR, CI95 1.3-2.8 nM) and 313 nM in data set [2] (IC50 of RNA anti-TAR aptamer R06 (binds TAR RNA) displacing TAT from immobilized miniTAR, CI95 166-675 nM).
